The text below walks through data of patent US20220153851A1 (Five Prime, published 2022).

First the molecules themselves.
B1: cAb 0302 (antibody, human IgG4 S228P, kappa)
heavy: not shown
light: DVVVTQTPASLAVSLGQRATISCRASESVDNYGLSFMNWFQQKPGQPPKLLIYTASNLESGIPARFSGGGSRTDFTLTIDPVEADDAATYFCQQSKELPWTFGGGTRLEIKRTVAAPSVFIFPPSDEQLKSGTASVVCLLNNFYPREAKVQWKVDNALQSGNSQESVTEQDSKDSTYSLSSTLTLSKADYEKHKVYACEVTHQGLSSPVTKSFNRGEC
B2: cAb 0311 (antibody, human IgG4 S228P, kappa, V domains shown)
VH: EIQLQQSGPDLMKPGASVKMSCKASGYIFTDYNMHWVKQNQGKSLEWMGEINPNNGVVVYNQKFKGTTTLTVDKSSSTAYMDLHSLTSEDSAVYYCTRALYHSNFGWYFDSWGKGTTLTVSS
VL: DIVLTQSPASLAVSLGQRATISCKASQSVDYDGDSHMNWYQQKPGQPPKLLIYTASNLESGIPARFSGSGSGADFTLTIHPVEEEDAATYYCQQGNEDPWTFGGGTRLEIKR
B3: h0301-L0H0 (antibody, human IgG4 S228P, kappa)
heavy: not shown
light: EIVLTQSPATLSLSPGERATLSCKASQSVDYDGDNYMNWYQQKPGQAPRLLIYAASNLESGIPARFSGSGSGTDFTLTISSLEPEDFAVYYCHLSNEDLSTFGGGTKVEIKRTVAAPSVFIFPPSDEQLKSGTASVVCLLNNFYPREAKVQWKVDNALQSGNSQESVTEQDSKDSTYSLSSTLTLSKADYEKHKVYACEVTHQGLSSPVTKSFNRGEC
notes: also called Ab1; huAb 0301-L0H0
B4: h0301-L1H0 (antibody, human IgG4 S228P, kappa)
heavy: not shown
light: B3 light with E1N
notes: also called Ab4; huAb 0301-L1H0
B5: h0302-L1H2 (antibody, human IgG4 S228P, kappa, V domains shown)
VH: QVQLVQSGAEVKKPGSSVKVSCKASGYTFSDFNIHWVRQAPGQGLEWIGYINPYTDVTVYNEKFKGRATLTSDKSTSTAYMELSSLRSEDTAVYYCASYFDGTFDYALDYWGQGTLVTVSS
VL: EIVLTQSPATLSLSPGERATLSCRASESVDNYGLSFMNWYQQKPGQAPRLLIYTASNLESGIPARFSGSGSRTDFTLTISSLEPEDFAVYYCQQSKELPWTFGQGTKVEIKR
notes: also called Ab11; huAb 0302-L1H2
B6: h0302-L2H2 (antibody, human IgG4 S228P, kappa, V domains shown)
VH: B5 VH
VL: B5 VL with L4V, Y40F
notes: also called Ab12; huAb 0302-L2H2

Where a chain is given by its changes, count along the chain named.

The target in the first test is T1, cynoCSF1R ECD-Fc (cynomolgus).
T1 construct: also called cynomolgus CSF1R ECD
Kind of test: competition ELISA, blocking of human CSF1 binding to cynoCSF1R ECD-Fc. How it is done: The humanized antibodies, along with the parental chimeric antibodies (cAbs), were tested for their ability to block human CSF1 binding to human and cynomolgus CSF1R ECD, as follows.
Recombinant Human CSF1 (M-CSF; R&D Systems) was biotinylated using an NH₂-Biotin Labeling Kit (Dojindo Molecular Technologies). One hundred μl of 1 μg/ml biotinylated CSF1 in PBST/0.1% BSA was added to the wells of Reacti-Bind Streptavidin coated plates (Pierce) pre-blocked with SuperBlock blocking buffer (Pierce) according to the manufacturer's instructions. Fifty μl of 0.5× serial dilutions of the humanized antibody or parental chimeric antibody, beginning with 2000 ng/ml, was incubated with 50 ng/ml hCSF1R ECD.506-Fc (SEQ ID NO: 6; FivePrime Therapeutics) or 50 ng/ml cynoCSF1R ECD-Fc (FivePrime Therapeutics, SEQ ID NO: 8, but without the 19 amino acid leader sequence) in 100 μl PBST/0.1% BSA for 90 min at RT, after which the admix was transferred to one or more wells of a ligand-coated plate. After 90 min at RT, wells were washed with PBST, and a 1:5000 dilution of an Fc-fragment-specific peroxidase-conjugated goat anti-human IgG (Jackson Immuno Research) in PBST/0.1% BSA was added to each well. After incubation at RT for 60 min, wells were washed with PBST/0.1% BSA, and o-phenylenediamine dihydrochloride peroxidase substrate (Sigma) was added to each well. After incubation at RT for 30 min, A450 values of each well were read directly on a SpectraMaxPlus spectrophotometer with SoftMaxPro software (Molecular Devices).
Background: ELISA stands for enzyme-linked immunosorbent assay.
Broadly, the IC50 is the concentration at which inhibition is half-maximal. Read a low IC50 as greater potency in that assay. B1 registered a concentration for half-maximal inhibition (IC50) of 0.0331 µg/mL.

Molecule B2 registered a concentration for half-maximal inhibition (IC50) of 0.0435 µg/mL.

B3 displayed an IC50 of 0.0276 µg/mL.

Turning to B4, the IC50 came to 0.0255 µg/mL.

In the case of B5, the IC50 was determined as 1.08 µg/mL.

Consider B6, for which the IC50 stood at 0.838 µg/mL.

For another test, the target named is T2, hCSF1R ECD.506 (human, UniProt P07333 20-506).
T2 construct: also called human CSF1R ECD
Briefly: SPR Biacore T100, antibody captured on anti-human IgG, hCSF1R ECD.506 as analyte, 1:1 model. How it is done:
The kₐ, kd, and KD for binding to human CSF1R ECD was determined for each of the humanized antibodies as follows.
Binding kinetics of anti-CSF1R humanized antibodies to CSF1R ECD was determined using Biacore T100 Surface Plasmon Resonance (SPR) (GE Healthcare Life Sciences, Piscataway, N.Y.). Each of the humanized anti-CSF1R antibodies was captured on a CM5 sensor chip immobilized with anti-Human IgG antibody using the Human antibody capture kit (GE Healthcare Life Sciences, Piscataway, N.Y.) at 150 RU so that the Rmax value for hCSF1R ECD.506 (SEQ ID NO: 5) binding was 100 RU. Rmax values of less than 150 RU are recommended for accurately determining kinetic values. […] The association constant, dissociation constant, affinity, and binding capacity of each of the Fabs for human CSF1R ECD was calculated using the Biacore T100 Evaluation software package using the 1:1 binding model.
A word on the Kd: it is the equilibrium constant for the complex coming apart. Higher therefore signals a looser complex. In general, koff refers to the first-order rate constant of dissociation. A high value points to fast dissociation. A word on the kon: it is the second-order rate constant of association. Low values mean slower complex formation, high ones faster complex formation. B3: the Kd stood at 0.35 nM, the koff was found to be 0.00111 s⁻¹ and the kon was 3.22e+06 M⁻¹ s⁻¹.

Molecule B4 registered a Kd of 0.35 nM, a koff of 0.00115 s⁻¹ and a kon of 3.29e+06 M⁻¹ s⁻¹.

B5 showed a Kd of 0.56 nM, an off-rate (koff) of 0.00153 s⁻¹ and a kon of 2.71e+06 M⁻¹ s⁻¹.

Consider B6, for which the Kd came out at 0.46 nM, the koff came out at 0.00084 s⁻¹ and the kon is 1.84e+06 M⁻¹ s⁻¹.

The next test addresses T3, human CSF1R on CSF1R (SEQ ID NO: 2)-transfected CHO cells (human, UniProt P07333 20-972). Briefly: cell-based or functional assay.
As to B1, the “IC50, inhibition of CSF1-induced CSF1R phosphorylation (head prints 'Human CSF1/Human CSF1R ECD IC50')” value was 0.264 µg/mL and the “IC50, inhibition of IL34-induced CSF1R phosphorylation (head prints 'Human IL34/Human CSF1R ECD IC50')” value was 0.351 µg/mL.

In the case of B2, the “IC50, inhibition of CSF1-induced CSF1R phosphorylation (head prints 'Human CSF1/Human CSF1R ECD IC50')” value is 0.577 µg/mL and the “IC50, inhibition of IL34-induced CSF1R phosphorylation (head prints 'Human IL34/Human CSF1R ECD IC50')” value was found to be 0.994 µg/mL.

B3: the “IC50, inhibition of CSF1-induced CSF1R phosphorylation (head prints 'Human CSF1/Human CSF1R ECD IC50')” value worked out at 1.03 µg/mL and the “IC50, inhibition of IL34-induced CSF1R phosphorylation (head prints 'Human IL34/Human CSF1R ECD IC50')” value turned out to be 0.433 µg/mL.

For B4, the “IC50, inhibition of CSF1-induced CSF1R phosphorylation (head prints 'Human CSF1/Human CSF1R ECD IC50')” value came out at 6.15 µg/mL and the “IC50, inhibition of IL34-induced CSF1R phosphorylation (head prints 'Human IL34/Human CSF1R ECD IC50')” value is 0.378 µg/mL.

For the molecule B5, the “IC50, inhibition of CSF1-induced CSF1R phosphorylation (head prints 'Human CSF1/Human CSF1R ECD IC50')” value was 0.598 µg/mL and the “IC50, inhibition of IL34-induced CSF1R phosphorylation (head prints 'Human IL34/Human CSF1R ECD IC50')” value came out at 0.495 µg/mL.

Take B6: the “IC50, inhibition of CSF1-induced CSF1R phosphorylation (head prints 'Human CSF1/Human CSF1R ECD IC50')” value was 0.354 µg/mL and the “IC50, inhibition of IL34-induced CSF1R phosphorylation (head prints 'Human IL34/Human CSF1R ECD IC50')” value worked out at 0.24 µg/mL.

Another test deals with T3, human CSF1R on CSF1R (SEQ ID NO: …). Kind of test: cell-based or functional assay. The source holds these as a separate data set.
On to B1, for which the “IC50 (read off the curve), CSF1-induced CSF1R phosphorylation” value is ~0.3 µg/mL.

Consider B5, for which the “IC50 (read off the curve), CSF1-induced CSF1R phosphorylation” value was ~0.6 µg/mL.

The next test deals with T1, cynoCSF1R ECD-Fc. Kind of test: competition ELISA, blocking of human IL34 binding to cynoCSF1R ECD-Fc.
On to B1, for which the IC50 was 0.0494 µg/mL.

For B2, the IC50 worked out at 0.0521 µg/mL.

For B3, the IC50 stood at 0.0359 µg/mL.

Molecule B4 displayed an IC50 of 0.0348 µg/mL.

Turning to B5, the IC50 was found to be 0.541 µg/mL.

Turning to B6, the IC50 is 0.279 µg/mL.

A further test addresses T3, human CSF1R on CSF1R (SEQ ID NO: …). Kind of test: cell-based or functional assay. This is another data set of the same source.
As to B3, the “CSF1 blocking IC50 (ligand-induced CSF1R phosphorylation in CHO cells)” value worked out at 0.305 µg/mL and the “IL34 blocking IC50 (ligand-induced CSF1R phosphorylation in CHO cells)” value is 0.341 µg/mL.

Take B4: the “CSF1 blocking IC50 (ligand-induced CSF1R phosphorylation in CHO cells)” value amounted to 0.213 µg/mL and the “IL34 blocking IC50 (ligand-induced CSF1R phosphorylation in CHO cells)” value came out at 0.242 µg/mL.

The target of a further test is T4, hCSF1R ECD.506-Fc (human).
T4 construct: also called human CSF1R ECD-Fc fusion protein; human CSF1R ECD
Kind of test: ELISA, plate coated with human CSF1R ECD-Fc. Here is the method:
(§1) Ninety-six well clear-bottom ELISA plates were coated overnight with 1 μg/ml recombinant hCSF1R ECD.506-Fc (SEQ ID NO: 6; FivePrime Therapeutics) or Human M-CSF R Fc Chimera (R&D Systems) in PBS. The next morning, wells were washed four times with 0.05% Tween20 in PBS (PBST) and blocked with Blocker-Blotto (Pierce). Fifty μl of 0.5× serial dilutions of the humanized antibody or parental chimeric antibody, beginning with 2000 ng/ml, diluted 1:1 in Blocker-Blotto were added to the CSF1R-coated wells. After incubation at room temperature (RT) for 90 min, wells were washed four times with PBST, and a 1:5000 dilution of a peroxidase-conjugated Goat anti-Human kappa Light chain antibody (Sigma) in Blocker-Blotto was added to each well. After incubation at RT for 60 min, wells were washed four times with PBST, and 50 μl o-phenylenediamine dihydrochloride peroxidase substrate (Sigma) was added to each well. After incubation at RT for 30 min, A450 values of each well were read directly on a SpectraMaxPlus spectrophotometer with SoftMaxPro software (Molecular Devices).
A word on the EC50: it is the concentration at which the effect is half-maximal. A low value points to an effect from little substance. As to B1, the EC50 was 0.0159 µg/mL.

With B2, the EC50 stood at 0.0176 µg/mL.

B3 came in with an EC50 of 0.0134 µg/mL.

For the molecule B4, the EC50 is 0.0134 µg/mL.

As for B5, the EC50 turned out to be 0.0221 µg/mL.

As to B6, the EC50 was determined as 0.0101 µg/mL.

In another test the target is T3, human CSF1R on CSF1R (SEQ ID NO: …). Kind of test: cell-based or functional assay. This is another data set of the same source.
In the case of B2, the “IC50 (read off the curve), IL34-induced CSF1R phosphorylation” value was ~1 µg/mL.

A further test has as its target T5, mCSF1R ECD-Fc (mouse).
T5 construct: also called mouse CSF1R ECD
Kind of test: ELISA, plate coated with mCSF1R ECD-Fc, detection anti-human kappa-HRP, A450. How it is done:
as §1
The binding curve for each humanized antibody binding to mouse CSF1R ECD was determined as described above for human CSF1R, except the wells of the clear-bottom ELISA plates were coated overnight with 2 μg/ml recombinant mCSF1R ECD-Fc (FivePrime Therapeutics, SEQ ID NO: 93).
On to B1, for which the binding result is recorded as “no binding (tested: 2000 ng/ml)”.

Take B2: the binding result was “no binding (tested: 2000 ng/ml)”.

In the case of B3, the binding result was “no binding (tested: 2000 ng/ml)”.

Take B4: the binding result is “no binding (tested: 2000 ng/ml)”.

As to B5, the binding result was “no binding (tested: 2000 ng/ml)”.

With B6, the binding result is “no binding (tested: 2000 ng/ml)”.

Another test addresses T1, cynoCSF1R ECD-Fc. Kind of test: ELISA, plate coated with cynoCSF1R ECD-Fc. How it is done:
as §1
The binding curve for each humanized antibody binding to cynomolgus CSF1R ECD was determined as described above for human CSF1R, except the wells of the clear-bottom ELISA plates were coated overnight with 2 μg/ml recombinant cynoCSF1R ECD-Fc (FivePrime Therapeutics, SEQ ID NO: 8, but without the 19 amino acid leader sequence).
On to B1, for which the concentration for a half-maximal effect (EC50) was determined as 0.0173 µg/mL.

As to B2, the EC50 was 0.0201 µg/mL.

Turning to B3, the midpoint of the response, the EC50, lay at 0.0151 µg/mL.

As for B4, the EC50 was 0.0119 µg/mL.

The molecule B5 had an EC50 of 0.172 µg/mL.

B6 came in with an EC50 of 0.018 µg/mL.
